Assay [1] addresses human α-synuclein, full length, wild type (human) (UniProt P37840). Put plainly: direct ELISA, 20 µg/ml coating of full length α-synuclein. Background: ELISA stands for enzyme-linked immunosorbent assay.
Assay [2] has the same target. Put plainly: direct ELISA, 100 ng/ml coating of full length α-synuclein.

By EC50 is commonly meant the concentration that produces a half-maximal response. Low readings indicate higher potency in that assay, high ones lower potency in that assay. As to antibody Syn211 (Sigma), the results for the EC50 in assay [1] and in assay [2] were 335 pM and 99 pM, respectively.

The values above are taken from patent publication US20180371065A1.
